Laboratory results from FireProtDB.

B1: L7I|A194E|Q222G|K234H|E237D, Q88HV5 (parent)
chain: MPFQQGLLATPVPAHARHLFFTLQSPEALPAALDALLPQVDGKQLLLGVGAPLAKALGREIPGLRPFPLLDAAVENPSTQHALWLWLRGDERGDLLLRTQALEQALAPALSLADSVDGFLHRGGHDLTGYEDGTENPTDEEAVQAAIAADGSSFAAFQLWKHDLQYFKSLPQADQDNIIGRRLSDNEELDDAPASAHVKRTAQESFEPEAFMVRRSVSWADQRGAGLAFVALGKSFEAFEVQLRRMSGLEDGIIDGLYRFSRPLTGGYYWCPPMSETGVDLSPLLRA
B2: Formate dehydrogenase, O13437 (parent)
chain: MKIVLVLYDAGKHAADEEKLYGCTENKLGIANWLKDQGHELITTSDKEGETSELDKHIPDADIIITTPFHPAYITKERLDKAKNLKLVVVAGVGSDHIDLDYINQTGKKISVLEVTGSNVVSVAEHVVMTMLVLVRNFVPAHEQIINHDWEVAAIAKDAYDIEGKTIATIGAGRIGYRVLERLLPFNPKELLYYDYQALPKEAEEKVGARRVENIEELVAQADIVTVNAPLHAGTKGLINKELLSKFKKGAWLVNTARGAICVAEDVAAALESGQLRGYGGDVWFPQPAPKDHPWRDMRNKYGAGNAMTPHYSGTTLDAQTRYAEGTKNILESFFTGKFDYRPQDIILLNGEYVTKAYGKHDKK
B3: FMN-dependent NADH:quinone oxidoreductase 1, Q88IY3 (parent)
chain: MKLLHIDSSILGDNSASRQLSREVVEAWKAADPSVEVVYRDLAADAIAHFSAATLVAAGTPEDVRDAAQAFEAKLSAETLEEFLAADAVVIGAPMYNFTVPTQLKAWIDRVAVAGKTFRYTEAGPQGLCGNKKVVLVSTAGGLHAGQPTGAGHEDFLKVFLGFIGITDLEIVRAHGLAYGPEQRSQAIDAAQAQIASELFAAA

Variants of: B1
Settings: Pseudomonas putida (strain ATCC 47054 / DSM 6125 / CFBP 8728 / NCIMB 11950 / KT2440); pH 7.6; Fluorescence spectroscopy; whole UniProt chain shown

Variant	Tm [°C]
L7I A194E Q222G K234H E237D	65
L7I E91D L110F S111V Q165D D174E A194E V217M Q222G K234H E237D	71
L7I R17V A28D A35R E91D E103I L110F S111V S115E L120R H121Y G123D T138Q D139G E140D Q144E Q165D K234H E237D	73
L7I R17V A28D A35R L110F S111V S115E L120R H121Y G123D T138Q D139G E140D Q144E A149D Q165D D174E K234H E237D	65
L7I R17V A28D A35R V49I A149D D174E Q222G K234H E237D	69
L7I R17V A28D A35R V49I E91D L96F L97H T99A E103I L110F S111V S115E L120R H121Y G123D T138Q D139G E140D Q144E A149D Q165D D174E A194E V217M Q222G K234H E237D P283A	83
L7I R17V A28D A35R V49I E91D L96F L97H T99A E103I Q165D V217M Q222G K234H E237D	67
L7I R17V A28D E91D L96F L97H T99A E103I L110F S111V S115E L120R H121Y G123D T138Q A149D Q165D	71
L7I R17V A28D V49I E91D L96F L97H T99A E103I L110F S111V S115E L120R H121Y G123D T138Q D139G E140D Q144E A149D	65
L7I R17V A35R Q165D E237D	75
L7I R17V V49I Q165D D174E V217M Q222G E237D P283A	68
L7I R17V V49I Q165D V217M K234H E237D P283A	68
L7I R17V V49I Q165D V217M Q222G K234H P283A	73
A9L E91D D94E Q100R L110F G118A L120R H125R D139G A149L A155V S169A V217M S218P Q222G L232F V279L	69
A9L Q100R L110F G118A L120R H125R D139G L232F V279L	74
A9L S25F A54V A149L V217M S218P Q222G L232F E237D	66
A9L S25F A54V D94E Q100R L110F A149L A155V V217M S218P Q222G	66
A9L S25F A54V D139G S169A D174E E237D	65
A9L S25F A54V E91D D94E L110F G118A L120R H125R D139G A149L S169A V217M S218P Q222G L232F E237D V279L	70
A9L S25F A54V E91D D94E Q100R L110F G118A L120R H125R D139G A149L A155V S169A D174E V217M S218P Q222G L232F E237D V279L	74
A9L S25F A54V E91D D94E Q100R L110F G118A L120R H125R D139G A149L V217M S218P Q222G L232F E237D	83
A9L S25F D139G A149L A155V	68
A9L S25F D139G A149L A155V V279L	68
A9L S25F L110F G118A L120R H125R S169A D174E V217M S218P Q222G L232F E237D	75
A9L S25F Q100R L110F G118A L120R H125R D139G A149L S169A E237D	70
R17V A28D V49I E91D L96F L97H T99A E103I T138Q D139G E140D Q144E A149D Q165D D174E A194E V217M Q222G K234H E237D P283A	82
S25F E91D D94E L110F G118A L120R H125R D139G A149L A155V S169A D174E	75
A28D A35R V49I L110F S111V S115E L120R H121Y G123D T138Q D139G E140D Q144E A149D Q222G P283A	74
V49I E91D L96F L97H T99A E103I L110F S111V S115E V217M Q222G	65

Variants of: B2
Settings: Candida boidinii; whole UniProt chain shown

Variant	Tm [°C]
A10C	64
C23S	54
A141M	35
D149L	58
A264P	59
S333Y	55
N350W	54

Variants of: B3
Settings: Pseudomonas putida (strain ATCC 47054 / DSM 6125 / CFBP 8728 / NCIMB 11950 / KT2440); Fluorescence spectroscopy; whole UniProt chain shown

Variant	Tm [°C]	ddG of mutation (higher = less stable) [kcal/mol]
Q192R A46P V159A	55	-0.8
Q192R A46P V159A A48P	55	3.3
Q192R A46P V159A A48P Y179H	55	-0.3
Q192R A46P V159A C129S	51	-0.6
Q192R A46P V159A C129S A178D A88G N131D L143Q	44	-1.9
Q192R A46P V159A C129S D7H A178D	54	1.5
